Data from the Immune Epitope Database (IEDB).

Experiments:
HLA-A*68:01 = experiment: IEDB peptide-MHC binding, cellular MHC/competitive/fluorescence; ≥ and ≤ were set here for values at or beyond the usual limits of such assays; details: source organism: Hepatitis B virus
HLA-A*03:01 [1] = experiment: as above; details: source organism: Hepatitis B virus
HLA-A*11:01 = experiment: as above; details: source organism: Hepatitis B virus
HLA-A*68:02 [2] = experiment: as above
HLA-A*31:01 [3] = experiment: IEDB peptide-MHC binding, purified MHC/competitive/radioactivity; ≥ and ≤ were set here for values at or beyond the usual limits of such assays
HLA-A*02:03 [4] = experiment: as above
HLA-A*02:02 [5] = experiment: as above
HLA-A*02:06 [6] = experiment: as above
HLA-A*31:01 [7] = experiment: IEDB peptide-MHC binding, cellular MHC/competitive/fluorescence; ≥ and ≤ were set here for values at or beyond the usual limits of such assays; details: source organism: Hepatitis B virus
HLA-A*02:03 [8] = experiment: as above; details: source organism: Hepatitis B virus
HLA-A*02:02 [9] = experiment: as above; details: source organism: Hepatitis B virus
HLA-A*02:01 [10] = experiment: as above; details: source organism: Hepatitis B virus
HLA-A*02:06 [11] = experiment: as above; details: source organism: Hepatitis B virus
HLA-A*03:01 [12] = experiment: IEDB peptide-MHC binding, purified MHC/competitive/radioactivity; ≥ and ≤ were set here for values at or beyond the usual limits of such assays; details: source organism: Hepatitis B virus
HLA-A*02:01 [13] = experiment: as above
HLA-A*68:02 [14] = experiment: as above; details: source organism: Hepatitis B virus
[15] = source organism: Hepatitis B virus
[16] = source organism: Vaccinia virus WR

## ILCWGELMTL
HLA-A*68:01
  IC50: 43.9 µM
HLA-A*03:01 [1]
  IC50: 9.08 µM
HLA-A*11:01
  IC50: ≥ 70 µM
HLA-A*68:02 [2]; [15]
  IC50: 7.82 µM
HLA-A*31:01 [3]; [15]
  IC50: 1.86 µM
HLA-A*02:03 [4]; [15]
  IC50: 0.0053 µM
HLA-A*02:02 [5]; [15]
  IC50: 6.7 nM
HLA-A*02:06 [6]; [15]
  IC50: 0.007 µM

## KVGAGAFGL
HLA-A*68:01
  IC50: ≥ 70 µM
HLA-A*31:01 [7]
  IC50: 12.6 µM
HLA-A*03:01 [1]
  IC50: 25 µM
HLA-A*02:03 [8]
  IC50: 34.7 µM
HLA-A*02:02 [9]
  IC50: 9.12 µM
HLA-A*11:01
  IC50: ≥ 70 µM
HLA-A*68:02 [2]; [15]
  IC50: ≥ 70 µM
HLA-A*02:01 [10]
  IC50: 11 µM
HLA-A*02:06 [6]; [15]
  IC50: 1.14 µM

## RVRGLYFPA
HLA-A*68:01
  IC50: ≥ 70 µM
HLA-A*03:01 [1]
  IC50: ≥ 70 µM
HLA-A*02:06 [11]
  IC50: 8.24 µM
HLA-A*11:01
  IC50: ≥ 70 µM
HLA-A*68:02 [2]; [15]
  IC50: 17.2 µM
HLA-A*02:01 [10]
  IC50: 18 µM
HLA-A*31:01 [3]; [15]
  IC50: 0.024 µM
HLA-A*02:03 [4]; [15]
  IC50: 3.96 µM
HLA-A*02:02 [5]; [15]
  IC50: 3120 nM

## LLPIFFCLWV
HLA-A*68:01
  IC50: 51 µM
HLA-A*31:01 [7]
  IC50: 6.23 µM
HLA-A*11:01
  IC50: ≥ 70 µM
HLA-A*68:02 [2]; [15]
  IC50: ≥ 70 µM
HLA-A*03:01 [12]
  IC50: 1.33 µM
HLA-A*02:03 [4]; [15]
  IC50: 0.015 µM
HLA-A*02:06 [6]; [15]
  IC50: 0.0023 µM

## SMYPSCCCT
HLA-A*68:01
  IC50: ≥ 70 µM
HLA-A*31:01 [7]
  IC50: 68.4 µM
HLA-A*03:01 [1]
  IC50: ≥ 70 µM
HLA-A*02:03 [8]
  IC50: 5.52 µM
HLA-A*02:02 [9]
  IC50: 10.3 µM
HLA-A*02:06 [11]
  IC50: 9.31 µM
HLA-A*11:01
  IC50: ≥ 70 µM
HLA-A*68:02 [2]; [15]
  IC50: ≥ 70 µM
HLA-A*02:01 [10]
  IC50: 6.43 µM

## RILTIPQSL
HLA-A*68:01
  IC50: ≥ 70 µM
HLA-A*31:01 [7]
  IC50: 36.9 µM
HLA-A*03:01 [1]
  IC50: ≥ 70 µM
HLA-A*02:03 [8]
  IC50: 9.77 µM
HLA-A*02:02 [9]
  IC50: 6.45 µM
HLA-A*02:06 [11]
  IC50: 5.95 µM
HLA-A*11:01
  IC50: ≥ 70 µM
HLA-A*68:02 [2]; [15]
  IC50: ≥ 70 µM
HLA-A*02:01 [10]
  IC50: 39.1 µM

## KQYLNLYPV
HLA-A*68:01
  IC50: ≥ 70 µM
HLA-A*03:01 [1]
  IC50: ≥ 70 µM
HLA-A*11:01
  IC50: 30.4 µM
HLA-A*68:02 [2]; [15]
  IC50: 36.8 µM
HLA-A*31:01 [3]; [15]
  IC50: 0.189 µM
HLA-A*02:03 [4]; [15]
  IC50: 0.0045 µM
HLA-A*02:02 [5]; [15]
  IC50: 224 nM
HLA-A*02:06 [6]; [15]
  IC50: 0.011 µM
HLA-A*02:01 [13]; [15]
  IC50: 0.138 µM

## MMWYWGPSL
HLA-A*68:01
  IC50: ≥ 70 µM
HLA-A*31:01 [3]; [15]
  IC50: 0.131 µM
HLA-A*02:03 [4]; [15]
  IC50: 0.054 µM
HLA-A*02:02 [5]; [15]
  IC50: 137 nM

## HQLDPAFRA
HLA-A*68:01
  IC50: ≥ 70 µM
HLA-A*31:01 [7]
  IC50: 40.6 µM
HLA-A*03:01 [1]
  IC50: ≥ 70 µM
HLA-A*02:03 [8]
  IC50: 55.9 µM
HLA-A*02:02 [9]
  IC50: 16 µM
HLA-A*11:01
  IC50: 14.7 µM
HLA-A*68:02 [2]; [15]
  IC50: ≥ 70 µM
HLA-A*02:01 [10]
  IC50: 6.45 µM
HLA-A*02:06 [6]; [15]
  IC50: 0.118 µM

## WMMWYWGPSL
HLA-A*68:01
  IC50: ≥ 70 µM
HLA-A*03:01 [1]
  IC50: 15.4 µM
HLA-A*11:01
  IC50: ≥ 70 µM
HLA-A*31:01 [3]; [15]
  IC50: 0.784 µM
HLA-A*02:03 [4]; [15]
  IC50: 0.068 µM
HLA-A*02:02 [5]; [15]
  IC50: 354 nM
HLA-A*02:06 [6]; [15]
  IC50: 0.305 µM
HLA-A*68:02 [14]
  IC50: 3.59 µM

## LVPFVQWFV
HLA-A*68:01
  IC50: ≥ 70 µM
HLA-A*03:01 [1]
  IC50: ≥ 70 µM
HLA-A*11:01
  IC50: 69.8 µM
HLA-A*31:01 [3]; [15]
  IC50: 1.82 µM
HLA-A*02:03 [4]; [15]
  IC50: 0.071 µM
HLA-A*02:06 [6]; [15]
  IC50: 0.055 µM
HLA-A*68:02 [14]
  IC50: 0.019 µM
HLA-A*02:01 [13]; [15]
  IC50: 0.168 µM

## KLYIALCKV
HLA-A*68:02 [2]; [16]
  IC50: 16.6 µM
HLA-A*31:01 [3]; [16]
  IC50: 0.739 µM
HLA-A*02:03 [4]; [16]
  IC50: 0.0014 µM
HLA-A*02:02 [5]; [16]
  IC50: 16 nM
HLA-A*02:06 [6]; [16]
  IC50: 0.097 µM
HLA-A*02:01 [13]; [16]
  IC50: 0.0067 µM

## YQGMLPVCPL
HLA-A*68:01
  IC50: ≥ 70 µM
HLA-A*31:01 [7]
  IC50: 11.4 µM
HLA-A*03:01 [1]
  IC50: 24 µM
HLA-A*11:01
  IC50: ≥ 70 µM
HLA-A*68:02 [2]; [15]
  IC50: 5.34 µM
HLA-A*02:03 [4]; [15]
  IC50: 0.02 µM
HLA-A*02:02 [5]; [15]
  IC50: 35 nM
HLA-A*02:06 [6]; [15]
  IC50: 0.165 µM
HLA-A*02:01 [13]; [15]
  IC50: 0.543 µM

## YLVSFGVWI
HLA-A*68:01
  IC50: ≥ 70 µM
HLA-A*31:01 [7]
  IC50: ≥ 70 µM
HLA-A*03:01 [1]
  IC50: 15.2 µM
HLA-A*11:01
  IC50: ≥ 70 µM
HLA-A*68:02 [2]; [15]
  IC50: 38.2 µM
HLA-A*02:03 [4]; [15]
  IC50: 0.311 µM
HLA-A*02:02 [5]; [15]
  IC50: 140 nM
HLA-A*02:06 [6]; [15]
  IC50: 1.84 µM
HLA-A*02:01 [13]; [15]
  IC50: 0.173 µM

## FLLSLGIHL
HLA-A*68:01
  IC50: 15.7 µM
HLA-A*31:01 [7]
  IC50: 6.79 µM
HLA-A*68:02 [2]; [15]
  IC50: 10.5 µM
HLA-A*03:01 [12]
  IC50: 2.53 µM

## VLLDYQGML
HLA-A*68:01
  IC50: ≥ 70 µM
HLA-A*31:01 [7]
  IC50: 12.8 µM
HLA-A*03:01 [1]
  IC50: ≥ 70 µM
HLA-A*02:03 [8]
  IC50: 22.6 µM
HLA-A*11:01
  IC50: 35.2 µM
HLA-A*68:02 [2]; [15]
  IC50: ≥ 70 µM
HLA-A*02:02 [5]; [15]
  IC50: 53 nM
HLA-A*02:06 [6]; [15]
  IC50: 0.679 µM
HLA-A*02:01 [13]; [15]
  IC50: 0.081 µM

## LLWFHISCL
HLA-A*68:01
  IC50: ≥ 70 µM
HLA-A*31:01 [7]
  IC50: 8.85 µM
HLA-A*11:01
  IC50: 32.5 µM
HLA-A*68:02 [2]; [15]
  IC50: ≥ 70 µM
HLA-A*03:01 [12]
  IC50: 3.26 µM
HLA-A*02:02 [5]; [15]
  IC50: 307 nM
HLA-A*02:06 [6]; [15]
  IC50: 0.382 µM

## FLAPLPIHTA
HLA-A*68:01
  IC50: 35.5 µM
HLA-A*31:01 [7]
  IC50: ≥ 70 µM
HLA-A*11:01
  IC50: 43.2 µM
HLA-A*03:01 [12]
  IC50: 4.09 µM
HLA-A*02:03 [4]; [15]
  IC50: 0.00028 µM
HLA-A*02:02 [5]; [15]
  IC50: 0.049 nM
HLA-A*02:06 [6]; [15]
  IC50: 0.013 µM
HLA-A*68:02 [14]
  IC50: 0.971 µM
HLA-A*02:01 [13]; [15]
  IC50: 0.0013 µM

## LLVLLDYQGM
HLA-A*68:01
  IC50: ≥ 70 µM
HLA-A*31:01 [7]
  IC50: 7.26 µM
HLA-A*03:01 [1]
  IC50: 19.5 µM
HLA-A*02:03 [8]
  IC50: 5.58 µM
HLA-A*11:01
  IC50: ≥ 70 µM
HLA-A*68:02 [2]; [15]
  IC50: 61.1 µM
HLA-A*02:02 [5]; [15]
  IC50: 799 nM
HLA-A*02:06 [6]; [15]
  IC50: 1.81 µM
